What follows are binders tested against HLA-A*2401 (purified HLA class I molecule) (human) (assay: competition with 125I-labelled probe peptide for purified HLA, gel filtration). Conditions: not given.

Binder | relative binding ratio (IC50 of standard peptide / IC50 of test peptide)
VYMIMVKCW [HER2/neu peptide, position 951, 9 amino acids] | 0.16
VYMIMVKCWMI [HER2/neu peptide, position 951, 11 amino acids] | 1.8
WMALESIL [HER2/neu peptide, position 888, 8 amino acids] | -0.0003
WMIDSECRPRF [HER2/neu peptide, position 959, 11 amino acids] | 0.0011
YMIMVKCW [HER2/neu peptide, position 952, 8 amino acids] | 0.0009
TYLPTNASLSF [HER2/neu peptide, position 63, 11 amino acids] | 8.9
TYNTDTFESM [HER2/neu peptide, position 273, 10 amino acids] | 0.0074
VFETLEEI [HER2/neu peptide, position 399, 8 amino acids] | -0.0003
VFQNLQVI [HER2/neu peptide, position 424, 8 amino acids] | -0.0003

Same assay, conditions: scale: ratio

Binder | relative binding ratio
VYMIMVKCW [HER2/neu peptide, position 951, 9 amino acids] | 0.16
VYMIMVKCWMI [HER2/neu peptide, position 951, 11 amino acids] | 1.8
WMALESIL [HER2/neu peptide, position 888, 8 amino acids] | -0.0003
WMIDSECRPRF [HER2/neu peptide, position 959, 11 amino acids] | 0.0011
YMIMVKCW [HER2/neu peptide, position 952, 8 amino acids] | 0.0009

What follows are binders tested against HLA-A*2401 (human) (assay: inhibition of 125I probe peptide binding to purified HLA; IC50 standard/IC50 test). Conditions: not given.

Binder | relative binding ratio
AFDNLYYW [HER2/neu 1216-1223] | 0.0039
AFGTVYKGI [HER2/neu 730-738] | 0.0002
AFGTVYKGIW [HER2/neu 730-739] | 0.001
AFGTVYKGIWI [HER2/neu 730-740] | 0.0008
AFSPAFDNL [HER2/neu 1212-1220] | 0.0011
AWPDSLPDL [HER2/neu 414-422] | 0.0041
AYSLTLQGL [HER2/neu 440-448] | 0.13
AYSLTLQGLGI [HER2/neu 440-450] | 0.023
CFVHTVPW [HER2/neu 475-482] | 0.019
CFVHTVPWDQL [HER2/neu 475-485] | 0.0003
CMQIAKGMSYL [HER2/neu 826-836] | -0.0003
CYGLGMEHL [HER2/neu 342-350] | 0.018
CYQDTILW [HER2/neu 162-169] | 0.012
CYQDTILWKDI [HER2/neu 162-172] | 0.0016
DFGLARLL [HER2/neu 863-870] | 0.0005
DFGLARLLDI [HER2/neu 863-872] | 0.0002
EFAGCKKI [HER2/neu 363-370] | -0.0003
EFAGCKKIF [HER2/neu 363-371] | 0.0003
EYHADGGKVPI [HER2/neu 876-886] | -0.0003
EYLVPQQGF [HER2/neu 1022-1030] | 0.0014
EYLVPQQGFF [HER2/neu 1022-1031] | 0.012

Binder | relative binding ratio
EYVNARHCL [HER2/neu 553-561] | 0.0061
GMGAAKGL [HER2/neu 1091-1098] | -0.0003
GMGAAKGLQSL [HER2/neu 1091-1101] | -0.0003
GYLYISAW [HER2/neu 408-415] | 0.0044
HFNHSGICEL [HER2/neu 257-266] | 0.0002
IFGSLAFL [HER2/neu 370-377] | 0.012
IFHKNNQL [HER2/neu 172-179] | -0.0003
IMVKCWMI [HER2/neu 954-961] | 0.021
IWIPDGENVKI [HER2/neu 738-748] | 0.0027
KWMALESI [HER2/neu 887-894] | 0.008
KWMALESIL [HER2/neu 887-895] | 0.015
KYTMRRLL [HER2/neu 684-691] | 0.0024
LFEDNYAL [HER2/neu 107-114] | 0.0006
LFEDNYALAVL [HER2/neu 107-117] | 0.0006
LFRNPHQAL [HER2/neu 485-493] | 0.0002
LFRNPHQALL [HER2/neu 485-494] | 0.0014
LMPYGCLL [HER2/neu 800-807] | 0.0076
LYISAWPDSL [HER2/neu 410-419] | 0.084
PMCKGSRCW [HER2/neu 197-205] | 0.0011
PYDGIPAREI [HER2/neu 922-931] | 0.0005
PYVSRLLGI [HER2/neu 780-788] | 0.17

Binder | relative binding ratio
RFRELVSEF [HER2/neu 968-976] | 0.018
RFTHQSDVW [HER2/neu 898-906] | 0.011
RFVVIQNEDL [HER2/neu 985-994] | 0.0002
RMARDPQRF [HER2/neu 978-986] | 0.0032
RWGLLLAL [HER2/neu 8-15] | 0.025
RWGLLLALL [HER2/neu 8-16] | 1.3
RYSEDPTVPL [HER2/neu 1111-1120] | 0.012
SMPNPEGRYTF [HER2/neu 281-291] | 0.018
SWLGLRSLR [HER2/neu 451-459] | -0.0003
SWLGLRSLREL [HER2/neu 451-461] | 0.0036
SYGVTVWEL [HER2/neu 907-915] | 0.12
SYLEDVRL [HER2/neu 834-841] | 0.0059
SYMPIWKF [HER2/neu 609-616] | 0.32
TFGAKPYDGI [HER2/neu 917-926] | 0.0002
TMRRLLQETEL [HER2/neu 686-696] | -0.0003
TYLPTNASL [HER2/neu 63-71] | 0.038
TYLPTNASLSF [HER2/neu 63-73] | 8.9
VFETLEEI [HER2/neu 399-406] | -0.0003
VFQNLQVI [HER2/neu 424-431] | -0.0003
VWSYGVTVW [HER2/neu 905-913] | 0.08
VWSYGVTVWEL [HER2/neu 905-915] | 0.092

Reference: patent publication US20040018971A1
